{"source": "paper PMC5209314", "about": "“Purification and characterization of a novel glutamate dehydrogenase from Geotrichum candidum with higher alcohol and amino acid activity” (AMB Express, 2017)", "proteins": {"B1": {"name": "glutamate dehydrogenase (GDH) from Geotrichum candidum S12 (Geotrichum candidum) (protein)", "chain": "MVQPSEPEFEQAYNELLSTLKDSTLFEKRPELEKVIPIVSIPERVLQFRVVWEDDNGVAQVNRGYRVQFNSALGPYKGGLRFHPTVNLSILKFLGYEQIFKNALTGLNMGGGKGGSDFDPKGKSDSEIRRFCVAFMGELHRHIGADTDVPAGDINVGGREIGYLFGAYKKFKNTWEGVLTGKGLTWGGSLIRPEATGYGVVYYVEKMIEYATQGKESFAGKTVAISGSGNVAQYAALKVIELGGTVVSLSDSKGAFIATTAEGFTPAEIAEIADIKVSHAQLSTLADKFASKFKYLEGARPWVHVKADVALPCATQNEVSGEEAEALVANGTKFIAEGSNMGSTQEAIDVFEAERLKNPQGIWYAPGKAANAGGVAVSGLEMAQNSQRGNWSTEEVDQRLKEIMVNIFNTSVSTAVEYSSEKGDSLPSLVKGANIAGFVKVADAMHDHGDFW", "notes": "identified by PMF similarity to Yaliof17820p (Yarrowia homologue)"}}, "key": {"[1]": {"substrate": "N", "experiment": "purified protein", "conditions": "pH 4.0, 30 °C, printed unit doubtful: tested 5-50 mmol/L and same column is mM in abstract, so probably mmol/L"}, "[2]": {"substrate": "CC(C)CCO", "experiment": "GC of substrate decrease, Lineweaver-Burk", "type": "biochemical, Geotrichum candidum", "conditions": "NADP+, pH 4.0, 30 °C, Table 2 header prints mol/L, abstract mM"}, "[3]": {"substrate": "CCCCCCO", "experiment": "GC of substrate decrease, Lineweaver-Burk", "type": "biochemical, Geotrichum candidum", "conditions": "NADP+, pH 4.0, 30 °C, Table 2 header prints mol/L, abstract mM"}, "[4]": {"substrate": "O=C(O)CCC(=O)C(=O)O", "experiment": "purified protein", "type": "biochemical, Geotrichum candidum", "conditions": "NADPH, NH4+, pH 4.0, 30 °C, Table 2 header prints μmol/L, abstract mM"}, "[5]": {"substrate": "NC(=O)C1=CN([C@@H]2O[C@H](COP(=O)(O)OP(=O)(O)OC[C@H]3O[C@@H](n4cnc5c(N)ncnc54)[C@H](OP(=O)(O)O)[C@@H]3O)[C@@H](O)[C@H]2O)C=CC1", "experiment": "purified protein", "type": "biochemical, Geotrichum candidum", "conditions": "pH 4.0, 30 °C, printed unit doubtful: tested 0.01-0.1 mmol/L and same column is mM in abstract, so probably mmol/L, varied: cofactor"}, "[6]": {"substrate": "N[C@@H](CCC(=O)O)C(=O)O", "experiment": "purified protein", "type": "biochemical, Geotrichum candidum", "conditions": "NADP+, pH 4.0, 30 °C, Table 2 header prints μmol/L, abstract mM, competitive with hexanol, b65 prints other Michaelis constants (61.02 and 13.43 mM, both called glutamate)"}}}
{"protein": "B1", "values": [{"measurement": "Km", "setting": "[1]", "value": 0.00535, "unit": "mM"}, {"measurement": "Km", "setting": "[2]", "value": 19.37, "unit": "mM"}, {"measurement": "Km", "setting": "[3]", "value": 20.37, "unit": "mM"}, {"measurement": "Km", "setting": "[4]", "value": 4.01, "unit": "mM"}, {"measurement": "Km", "setting": "[5]", "value": 0.00013, "unit": "mM"}, {"measurement": "Km", "setting": "[6]", "value": 41.74, "unit": "mM"}]}
